Source: paper PMC7608686, “The interaction of DNA repair factors ASCC2 and ASCC3 is affected by somatic cancer mutations” (Nature Communications, 2020)
One block for each binder: values may come before it. Ends that are not written are not given here.

T1: ASCC2^1-434 (human, UniProt Q9H1I8 1-434)
T1 chain: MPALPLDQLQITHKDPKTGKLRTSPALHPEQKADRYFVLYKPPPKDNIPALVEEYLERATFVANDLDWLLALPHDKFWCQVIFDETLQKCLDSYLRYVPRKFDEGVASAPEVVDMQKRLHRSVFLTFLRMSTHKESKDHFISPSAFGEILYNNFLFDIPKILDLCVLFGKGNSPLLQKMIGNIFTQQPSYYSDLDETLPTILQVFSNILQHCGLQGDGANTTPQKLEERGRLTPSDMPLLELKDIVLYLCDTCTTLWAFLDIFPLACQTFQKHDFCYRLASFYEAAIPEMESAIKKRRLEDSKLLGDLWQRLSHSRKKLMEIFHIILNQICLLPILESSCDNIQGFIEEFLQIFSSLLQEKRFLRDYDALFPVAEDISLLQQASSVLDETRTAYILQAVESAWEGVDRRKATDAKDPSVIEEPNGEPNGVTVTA

T2: ASCC3^1-22 peptide R5C (human, UniProt Q8N3C0 1-22, R5C, C-terminal amination)
T2 construct: ASCC3, human, N-terminal 22 residues with the somatic cancer substitution R5C; source: synthetic peptide (GL biochem)
T2 peptide (looked up): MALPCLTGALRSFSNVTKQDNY

T3: ASCC3^1-22 peptide R5L (human, UniProt Q8N3C0 1-22, R5L, C-terminal amination)
T3 construct: ASCC3, human, N-terminal 22 residues with the somatic cancer substitution R5L; source: synthetic peptide (GL biochem)
T3 peptide (looked up): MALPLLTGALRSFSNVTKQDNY

T4: ASCC3^1-22 peptide R5H (human, UniProt Q8N3C0 1-22, R5H, C-terminal amination)
T4 construct: ASCC3, human, N-terminal 22 residues with the somatic cancer substitution R5H; source: synthetic peptide (GL biochem)
T4 peptide (looked up): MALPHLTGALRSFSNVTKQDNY

T5: ASCC3^1-22 peptide R5G (human, UniProt Q8N3C0 1-22, R5G, C-terminal amination)
T5 construct: ASCC3, human, N-terminal 22 residues with the somatic cancer substitution R5G; source: synthetic peptide (GL biochem)
T5 peptide (looked up): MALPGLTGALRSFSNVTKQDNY

T6: ASCC2^1-434, elastase fragment of ASCC2^FL (human, UniProt Q9H1I8 1-434)
T6 construct: Proteolytic fragment; also called approximately 50 kDa fragment of ASCC2; source: elastase digestion of the purified ASCC2^FL-ASCC3^NTR complex (proteins from insect cells); not shown: His10, N-terminal, cleaved
T6 sequence (looked up): T1 chain

T7: Seleno-methionine (SeMet)-derivatized ASCC2^1-434 (human, UniProt Q9H1I8 1-434, seleno-methionine (SeMet) in place of methionine)
T7 construct: Unmodified complex (co-produced in High Five cells) was crystallized too; the structure was solved by SAD with the SeMet complex; source: E. coli BL21 (DE3), PASM-5052 medium with SeMet, purified (Ni-NTA, SEC); not shown: His6, N-terminal, cleaved
T7 sequence (looked up): T1 chain

T8: Full-length ASCC2 (ASCC2^FL) (human, UniProt Q9H1I8 1-757)
T8 construct: from a synthetic gene (GeneArt); TEV-cleavable tag; source: insect cells (High Five), recombinant, purified (Ni-NTA, SEC); not shown: His10, N-terminal, cleaved
T8 sequence (looked up): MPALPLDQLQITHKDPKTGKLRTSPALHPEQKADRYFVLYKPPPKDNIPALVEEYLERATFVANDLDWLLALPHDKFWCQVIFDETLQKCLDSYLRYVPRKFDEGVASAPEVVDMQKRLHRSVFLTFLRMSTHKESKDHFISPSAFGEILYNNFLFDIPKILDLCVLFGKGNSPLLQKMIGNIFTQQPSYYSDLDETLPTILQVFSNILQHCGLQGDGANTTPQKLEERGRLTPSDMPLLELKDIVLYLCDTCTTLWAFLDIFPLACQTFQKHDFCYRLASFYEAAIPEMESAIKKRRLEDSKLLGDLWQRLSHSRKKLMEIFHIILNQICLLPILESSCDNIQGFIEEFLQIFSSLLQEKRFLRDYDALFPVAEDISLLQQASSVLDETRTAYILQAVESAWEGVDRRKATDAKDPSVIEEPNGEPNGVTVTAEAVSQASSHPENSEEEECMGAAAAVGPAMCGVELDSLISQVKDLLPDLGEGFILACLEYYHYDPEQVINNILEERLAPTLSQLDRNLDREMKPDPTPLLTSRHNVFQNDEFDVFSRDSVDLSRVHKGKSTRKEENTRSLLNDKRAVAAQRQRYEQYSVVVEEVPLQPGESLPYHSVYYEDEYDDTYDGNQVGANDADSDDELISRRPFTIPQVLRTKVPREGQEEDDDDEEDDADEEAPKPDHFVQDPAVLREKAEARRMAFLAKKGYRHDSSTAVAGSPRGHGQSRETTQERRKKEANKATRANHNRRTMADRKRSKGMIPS

B1: ASCC3^1-197 (domain or fragment, human, UniProt Q8N3C0 1-197, looked up)
chain: MALPRLTGALRSFSNVTKQDNYNEEVADLKIKRSKLHEQVLDLGLTWKKIIKFLNEKLEKSKMQSINEDLKDILHAAKQIVGTDNGREAIESGAAFLFMTFHLKDSVGHKETKAIKQMFGPFPSSSATAACNATNRIISHFSQDDLTALVQMTEKEHGDRVFFGKNLAFSFDMHDLDHFDELPINGETQKTISLDYK
notes: source: E. coli BL21 (DE3), purified (Ni-NTA, SEC); not shown: His6, N-terminal, cleaved
B2: ASCC2^1-434 (domain or fragment, human, UniProt Q9H1I8 1-434, looked up)
chain: T1 chain
notes: as for B1
B3: ASCC3^1-207, elastase fragment of ASCC3^NTR (domain or fragment, human, UniProt Q8N3C0 1-207, looked up)
chain: MALPRLTGALRSFSNVTKQDNYNEEVADLKIKRSKLHEQVLDLGLTWKKIIKFLNEKLEKSKMQSINEDLKDILHAAKQIVGTDNGREAIESGAAFLFMTFHLKDSVGHKETKAIKQMFGPFPSSSATAACNATNRIISHFSQDDLTALVQMTEKEHGDRVFFGKNLAFSFDMHDLDHFDELPINGETQKTISLDYKKFLNEHLQEA
notes: ASCC3, human, N-terminal 207 residues, mapped by mass spectrometric fingerprinting; Proteolytic fragment; also called N-terminal, 207-residue fragment of ASCC3; source: elastase digestion of the purified ASCC2^FL-ASCC3^NTR complex (proteins from insect cells); not shown: His10, N-terminal, cleaved
B4: ASCC3^1-207 (domain or fragment, human, UniProt Q8N3C0 1-207, looked up)
chain: B3 chain
notes: ASCC3, human, residues 1-207; residues 1-186 traced in the model; source: insect cells, recombinant, purified (Ni-NTA, SEC); not shown: His10, N-terminal, cleaved
B5: ASCC3 N-terminal region (ASCC3^NTR; residues 1-400) (domain or fragment, human, UniProt Q8N3C0 1-400, looked up)
chain: MALPRLTGALRSFSNVTKQDNYNEEVADLKIKRSKLHEQVLDLGLTWKKIIKFLNEKLEKSKMQSINEDLKDILHAAKQIVGTDNGREAIESGAAFLFMTFHLKDSVGHKETKAIKQMFGPFPSSSATAACNATNRIISHFSQDDLTALVQMTEKEHGDRVFFGKNLAFSFDMHDLDHFDELPINGETQKTISLDYKKFLNEHLQEACTPELKPVEKTNGSFLWCEVEKYLNSTLKEMTEVPRVEDLCCTLYDMLASIKSGDELQDELFELLGPEGLELIEKLLQNRITIVDRFLNSSNDHRFQALQDNCKKILGENAKPNYGCQVTIQSEQEKQLMKQYRREEKRIARREKKAGEDLEVSEGLMCFDPKELRIQREQALLNARSVPILSRQRDADVEKI
notes: ASCC3, human, N-terminal region, residues 1-400; The results say insect cells; source: insect cells, recombinant, purified (Ni-NTA; SEC step omitted); not shown: His10, N-terminal, cleaved
B6: ASCC3^1-22 peptide, wild type (peptide, UniProt Q8N3C0 1-22, looked up)
peptide: MALPRLTGALRSFSNVTKQDNY-NH2
notes: ASCC3, human, N-terminal 22 residues; also called WT ASCC3^1-22; source: synthetic peptide (GL biochem)
B7: ASCC3^1-161 (domain or fragment, human, UniProt Q8N3C0 1-161, looked up)
chain: MALPRLTGALRSFSNVTKQDNYNEEVADLKIKRSKLHEQVLDLGLTWKKIIKFLNEKLEKSKMQSINEDLKDILHAAKQIVGTDNGREAIESGAAFLFMTFHLKDSVGHKETKAIKQMFGPFPSSSATAACNATNRIISHFSQDDLTALVQMTEKEHGDRV
notes: ASCC3, human, residues 1-161 (lacks the C-arm); source: E. coli BL21 (DE3), purified (Ni-NTA, SEC); not shown: His6, N-terminal, cleaved
B8: ASCC3^16-197 (domain or fragment, human, UniProt Q8N3C0 16-197, looked up)
chain: VTKQDNYNEEVADLKIKRSKLHEQVLDLGLTWKKIIKFLNEKLEKSKMQSINEDLKDILHAAKQIVGTDNGREAIESGAAFLFMTFHLKDSVGHKETKAIKQMFGPFPSSSATAACNATNRIISHFSQDDLTALVQMTEKEHGDRVFFGKNLAFSFDMHDLDHFDELPINGETQKTISLDYK
notes: also called partial N-arm deletion variant; source: E. coli BL21 (DE3), purified (Ni-NTA, SEC); not shown: His6, N-terminal, cleaved

What was measured:
ASCC2^1-434 [1] = molecular target: T1, ASCC2^1-434; assay: ITC
ASCC2^1-434 [2] = molecular target: B2; assay: ITC; iTC200; ASCC3 variant (10 µM) in the sample cell, ASCC2 variant (100 µM) in the syringe; 20 mM HEPES-NaOH, pH 7.5, 100 mM NaCl; 25 °C; stoichiometry fixed to 1; details: both partners purified
ASCC3^1-22 peptide R5C = molecular target: T2, ASCC3^1-22 peptide R5C; assay: ITC; iTC200; ASCC3^1-22 peptide (10-15 µM) in the sample cell, ASCC2^1-434 (200 µM or 400 µM) in the syringe; 20 mM HEPES-NaOH, pH 7.5, 100 mM NaCl; 25 °C; stoichiometry fixed to 1; details: both partners purified
ASCC3^1-22 peptide R5L = molecular target: T3, ASCC3^1-22 peptide R5L; assay: as above; details: both partners purified
ASCC3^1-22 peptide R5H = molecular target: T4, ASCC3^1-22 peptide R5H; assay: as above; details: both partners purified
ASCC3^1-22 peptide R5G = molecular target: T5, ASCC3^1-22 peptide R5G; assay: as above; details: both partners purified
[3] = molecular target: T6, ASCC2^1-434, elastase fragment of …; assay: SEC; SEC of the fragments left after elastase digestion of the ASCC2^FL-ASCC3^NTR complex; details: both partners purified
[4] = molecular target: T7, Seleno-methionine (SeMet)-derivatized …; assay: crystal structure; SeMet SAD, 2.7 Å; complex reconstituted by SEC from SeMet ASCC2^1-434 (E. coli) and ASCC3^1-207 (insect cells); hanging drop, 4 °C, 0.1 M MES-NaOH, pH 6.5; details: both partners purified
[5] = molecular target: T8, Full-length ASCC2 (ASCC2^FL); assay: ITC; iTC200; ASCC3 variant (10 µM) in the sample cell, ASCC2 variant (100 µM) in the syringe; 20 mM HEPES-NaOH, pH 7.5, 100 mM NaCl; 25 °C; stoichiometry fixed to 1; details: both partners purified
ASCC2^1-434 [6] = molecular target: B2; assay: ITC; iTC200; ASCC3^1-22 peptide (10-15 µM) in the sample cell, ASCC2^1-434 (200 µM or 400 µM) in the syringe; 20 mM HEPES-NaOH, pH 7.5, 100 mM NaCl; 25 °C; stoichiometry fixed to 1; details: both partners purified

Kd (ASCC2^1-434 [1]): 21600 nM
Binder: MALPGLTGALRSFSNVTKQDNY-NH2 [ASCC3^1-22 peptide R5G]

Binder: B1
Kd (ASCC2^1-434 [2]): 3.8 nM

Binder: B2
fold reduced affinity compared to WT ASCC3^1-22 (ASCC3^1-22 peptide R5C): > 20 fold | fold weaker interaction than with WT ASCC3^1-22 (ASCC3^1-22 peptide R5L): ~8 fold | fold reduced affinity compared to WT ASCC3^1-22 (ASCC3^1-22 peptide R5H): > 20 fold | fold weaker interaction than with WT ASCC3^1-22 (ASCC3^1-22 peptide R5G): ~11 fold

Kd (ASCC2^1-434 [1]): 15400 nM
Binder: MALPLLTGALRSFSNVTKQDNY-NH2 [ASCC3^1-22 peptide R5L]

Binder: B3
binding result [3]: binds

Binder: B4
binding result [4]: binds

Binder: B5
Kd [5]: 3.5 nM

Kd (ASCC2^1-434 [1]): 43800 nM
Binder: MALPHLTGALRSFSNVTKQDNY-NH2 [ASCC3^1-22 peptide R5H]

Kd (ASCC2^1-434 [1]): 46500 nM
Binder: MALPCLTGALRSFSNVTKQDNY-NH2 [ASCC3^1-22 peptide R5C]

Binder: B6
Kd (ASCC2^1-434 [6]): 2000 nM

Binder: B7
Kd (ASCC2^1-434 [2]): 47.7 nM

Binder: B8
Kd (ASCC2^1-434 [2]): 483 nM
